The target of assay [1] is human ADAM9 (Disintegrin and Metalloproteinase Domain-containing Protein 9), on cells (human) (UniProt Q13443). Kind of assay: IHC staining of human tumour tissue: Colon CA (ILS11330 B); antibody at 0.4 µg/mL.
Assay [2] shares this target. Kind of assay: IHC staining of human tumour tissue: NSCLC (ILS10901), Adenocarcinoma; antibody at 0.4 µg/mL.
For assay [3] the target is unchanged. Kind of assay: IHC staining of human tumour tissue: Colon CA (ILS10369 B); antibody at 0.4 µg/mL.
Assay [4] has the same target. Kind of assay: IHC staining of human tumour tissue: NSCLC (ILS7115 D), Squamous Cell Carcinoma; antibody at 0.4 µg/mL.
Assay [5] shares this target. Kind of assay: IHC staining of human tumour tissue: Breast CA (USA-00329); antibody at 0.4 µg/mL.
The target is the same in assay [6]. Kind of assay: IHC staining of human tumour tissue: Prostate CA (ILS20758-D3); antibody at 0.4 µg/mL.
Assay [7] shares this target. Kind of assay: IHC staining of human tumour tissue: Gastric CA (ILS-450 A); antibody at 0.4 µg/mL.
For assay [8] the target is unchanged. Kind of assay: IHC staining of human tumour tissue: NSCLC (ILS7223), Squamous Cell Carcinoma; antibody at 0.4 µg/mL.
The target is the same in assay [9]. Kind of assay: IHC staining of human tumour tissue: Colon CA (ILS10341 B); antibody at 0.4 µg/mL.
Assay [10] has the same target. Kind of assay: IHC staining of human tumour tissue: NSCLC (ILS10108), Large Cell Carcinoma; antibody at 0.4 µg/mL.
Assay [11] has the same target. Kind of assay: IHC staining of human tumour tissue: Colon CA (AGR-00237 B); antibody at 0.4 µg/mL.

human ADAM9 (Disintegrin and Metalloproteinase Domain-containing Protein 9), on cells (human), sequence (Q13443 206-819): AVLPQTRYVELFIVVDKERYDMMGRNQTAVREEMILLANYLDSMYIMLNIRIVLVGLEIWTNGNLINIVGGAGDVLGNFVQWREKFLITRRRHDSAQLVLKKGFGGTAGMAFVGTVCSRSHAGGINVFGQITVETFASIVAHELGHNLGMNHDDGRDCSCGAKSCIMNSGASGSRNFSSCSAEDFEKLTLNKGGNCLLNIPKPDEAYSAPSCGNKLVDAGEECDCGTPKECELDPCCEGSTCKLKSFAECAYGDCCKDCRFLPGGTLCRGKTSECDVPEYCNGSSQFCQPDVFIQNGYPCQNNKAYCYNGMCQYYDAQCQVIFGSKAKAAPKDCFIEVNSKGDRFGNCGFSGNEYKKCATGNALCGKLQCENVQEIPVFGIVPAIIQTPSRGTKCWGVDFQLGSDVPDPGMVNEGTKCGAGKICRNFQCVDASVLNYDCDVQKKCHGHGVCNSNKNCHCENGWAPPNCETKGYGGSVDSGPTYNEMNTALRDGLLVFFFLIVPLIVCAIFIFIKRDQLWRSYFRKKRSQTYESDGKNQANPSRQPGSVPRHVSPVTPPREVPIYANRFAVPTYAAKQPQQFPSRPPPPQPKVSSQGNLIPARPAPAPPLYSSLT

B1: MAB-A (antibody, V domains shown)
VH: QVQLQQPGAELVKPGASVKLSCKASGYTFTSYWMHWVKQRPGQGLEWIGEIIPINGHTNYNEKFKSKATLTLDKSSSTAYMQLSSLASEDSAVYYCARGGYYYYGSRDYFDYWGQGTTLTVSS
VL: DIVLTQSPASLAVSLGQRATISCKASQSVDYDGDSYMNWYQQIPGQPPKLLIYAASDLESGIPARFSGSGSGTDFTLNIHPVEEEDAATYYCQQSHEDPFTFGGGTKLEIK
B1: the Score in assay [1] came out at 2; in assay [2] it was 3; in [3], 1; in assay [4], 1; in [5] it was 3; in assay [6], 3. For the same molecule, the Score in assay [7] was 2; in [8], 3; in assay [9], 2; in assay [10], 3; in [11], 3.
